# Experimental data from patent US20190330346A1 (REMD BIOTHERAPEUTICS, published 2019).
# Substitutions are numbered along the chain they refer to. In names and notes the source's numbering stands.
# T1: murine PD-1 (murine, UniProt Q02242 25-167, limits assumed)
# T1 construct: also called mouse PD-1
# T1 sequence (looked up): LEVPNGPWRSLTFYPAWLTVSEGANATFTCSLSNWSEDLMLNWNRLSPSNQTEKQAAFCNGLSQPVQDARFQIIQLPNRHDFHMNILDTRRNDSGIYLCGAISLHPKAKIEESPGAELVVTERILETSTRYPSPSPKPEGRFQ
# B1: PD1-BM Ab (Fab) (Fab, V domains shown)
# VH: EVQLVESGGGLVQPGGSLRLSCAASGFVFSRYDMAWVRQTPGKGLEWVAFISGGGSNTYYPDTVKGRFTISRDNSKNTLYLQMNSLRAEDTAVYYCISPYYYAMEYWGQGTTVTVSS
# VL: DIQMTQSPSSISTSVGDRVTITCKASQDVDTAVAWYQQKPGKSPKLLIHWASTRHTGVPSRFSGSGSGTDFTLTLSSVQPEDLADYFCQQYSTFPWTFGGGTKLEIK
# notes: Humanized Fab with all 14 back mutations; also called PD1-BM Fab
# B2: Fab 2 (Fab, V domains shown)
# VH: B1 VH with A49S
# VL: B1 VL
# notes: Crude Fab from E. coli; also called PD1-BM VH-A49S
# B3: Fab 4 (Fab, V domains shown)
# VH: B1 VH with S98K
# VL: B1 VL
# notes: Crude Fab from E. coli; also called PD1-BM VH-S98K
# B4: PD1-BM-min Ab (Fab) (Fab, V domains shown)
# VH: B1 VH with T40A, A49S
# VL: B1 VL with I11V, T13A, S43A, H49Y, L75I, V78L, L83F, D85T, F87Y, L104V
# notes: Humanized Fab with only the VH A97I and K98S back mutations; also called PD1-Grafted VH-A97I & K98S
# B5: chimeric IgG (antibody, V domains shown)
# VH: B1 VH with G10D, Q13K, R19K, G42E, G44R, S75A, N84T, R87K, A88S, T112S
# VL: DIVMTQSHKFISTSVGDRVSITCKASQDVDTAVAWYQQKPGQSPKLLIHWASTRHTGVPDRFTGGGSGTDFTLTLSNVQSEDLADYFCQQYSTFPWTFGGGTRLEIKR
# notes: Full-length IgG from HEK293-6E cells; also called murine-human chimeric antibody derived from PD1#3
# B6: AS05617 (IgG) (antibody, V domains shown)
# VH: B1 VH with A49S
# VL: DIQMTQSPSSISTSVGDRVTITCKASQDVDTAVAWYQQKPGKSPKLLIYWASTRHTGVPSRFSGSGSGTDFTLTISSLQPEDFADYFCQQYSTFPWTFGGGTKVEIKR
# notes: Full-length humanized IgG from HEK293 cells
# B7: PD1-BM Ab (IgG) (antibody, V domains shown)
# VH: B1 VH
# VL: B6 VL with Y49H, I75L, L78V, F83L, V104L
# notes: as for B6
# B8: PD1-BM-min (IgG) (antibody, V domains shown)
# VH: B1 VH with T40A, A49S
# VL: B6 VL with I11V, T13A, S43A, D85T, F87Y
# notes: as for B6
# B9: PD1#1 (antibody, V domains shown)
# VH: QVQLQQPGAELVMPGASVKMSCKASGYTITDCWMHWVKQRPGQGLEWIGAIDTSNSYTTYNQKFKGKATLTVDESSSTAYMQFNSLTSDDSAVYFCAISLQRPFDYWGQGTTLTVSS
# VL: DIQMTQSPASLSASVGENVTITCRASENVYSYLAWYQQKEGKSPQLLVYNAKTLTGGVPSRFSGSGSGTQFSLRISSLQPEDFGSYYCLQHYGYPFTFGSGTKLEKK
# notes: Murine hybridoma mAb purified on Protein A; also called mAb PD1#1
# B10: PD1#3 (antibody, V domains shown)
# VH: B1 VH with G10D, Q13K, R19K, G42E, G44R, S75A, N84T, R87K, A88S, T112S
# VL: DIVMTQSHKFISTSVGDRVSITCKASQDVDTAVAWYQQKPGQSPKLLIHWASTRHTGVPDRFTGGGSGTDFTLTLSNVQSEDLADYFCQQYSTFPWTFGGGTRLEIK
# notes: Murine hybridoma mAb purified on Protein A; also called mAb PD1#3
# B11: PD1#4 (antibody, V domains shown)
# VH: EVRLVESGGGLVKPGGSLKVSCVASGFTFSRYGMSWVRQTPEKRLEWVATISGGGRDTYYPDSVKGRFTISRDNAKNNLYLQMSSLRSEDTALYYCVRQEDIVWFAYWGQGTLVTVSA
# VL: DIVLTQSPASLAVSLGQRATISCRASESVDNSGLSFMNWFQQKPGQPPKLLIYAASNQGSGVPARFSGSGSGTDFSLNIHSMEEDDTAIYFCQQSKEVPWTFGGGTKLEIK
# notes: Murine hybridoma mAb purified on Protein A; also called mAb PD1#4
# What was measured:
# [1] = target: T2, His-tagged human PD-1 protein (human, UniProt Q15116 25-170, limits assumed); assay: SPR; Fab-SASA captured on immobilised BSA, his-tagged PD-1 as analyte
# T2 construct: SPR analyte; also called his-tagged antigen PD-1; not shown: His tag
# Experimental: For affinity ranking, BSA was immobilized onto the sensor chip using amine coupling method. The selected Fab-SASA secreted to the culture medium was injected and captured by BSA through the tight binding between BSA and SASA (capture phase). After equilibration, his-tagged antigen PD-1 was injected for 300 seconds (association phase) followed by the injection of running buffer for 900 seconds (dissociation phase). The surface was regenerated before the injection of another three Fab-SASA clones. The process was repeated until all selected Fab-SASA proteins were analyzed. Responses of reference flow cell were subtracted from those of Fab-SASA flow cells during each cycle. The antibodies were ranked by their dissociation rate constants (off-rates, […]). […]
# human PD-1 [2] = target: T3, human PD-1 (human, UniProt Q15116 25-167); assay: SPR, multiple-cycle, crude Fab from E. coli; antigen form not stated
# T3 construct: The immunogen was PD1/Fc (Leu25-Gln167 fused to human IgG1 Pro100-Lys330); also called huPD-1; hPD-1
# Source text: (§1) A homology model of mouse anti-PD1 Fv was built wherein putative back mutation sites (i.e., buried residues of the frameworks that are different in the mouse and human acceptor sequences) were identified. There were a total of 14 putative back mutation sites. A variant humanized Fab comprising all 14 of the putative back mutation sites of PD1-grafted Ab mutated back to their mouse counterparts (hereinafter identified as “PD1-BM Ab”) comprising the heavy chain variable region sequence set forth in SEQ ID NO: 38 and the light chain variable region sequence set forth in SEQ ID NO: 39, was synthesized. In addition, 14 variants of PD1-BM Ab (hereinafter identified as Fabs 1-14), each having at least one of the putative 14 back mutation sites in PD1-BM Ab mutated back to the human counterpart, were synthesized. These constructs were used to transform E. coli TG1 strain. Single colonies were pick for each individual construct and grown in E. coli medium. Crude chimeric and humanized Fabs were collected and subjected to multiple-cycle affinity estimation by Surface Plasmon Resonance (SPR).
# human PD-1 [3] = target: T3, human PD-1; assay: SPR, multiple-cycle, crude Fab from E. coli; antigen form not stated; footnote: *out of the detection limit
# Source text: as §1
# human PD-1 [4] = target: T3, human PD-1; assay: SPR, multiple-cycle, crude Fab from E. coli
# Source text: as §1
# human PD-1 [5] = target: T3, human PD-1; assay: SPR; antigen form not stated
# [6] = target: T2, His-tagged human PD-1 protein; assay: SPR (Biacore T200); IgG captured by anti-human Fc gamma, His-tagged human PD-1 as analyte, 1:1 model
# Experimental: The binding affinity of the purified IgGs to human PD-1 protein were determined using a Surface Plasmon Resonance (SPR) biosensor, Biacore T200 (GE Healthcare). Antibodies were captured on the sensor chip pre-coated with anti-human Fc gamma. His-tagged human PD-1 protein was used as analyte. The data of dissociation (kd) and association (kₐ) rate constants were obtained using Biacore T200 evaluation software. The equilibrium dissociation constants (KD) were calculated from the ratio of kd over kₐ. Binding data for each antibody was processed and fitted to 1:1 interaction model using Biacore T200 evaluation software. All experimental data could be well fitted to the model.
# [7] = target: T2, His-tagged human PD-1 protein; assay: SPR (Biacore T200); antibody captured by anti-human Fc gamma, His-tagged human PD-1 as analyte
# Experimental: Using the HCVR sequence and LCVR sequence of mAb PD1#3, a murine-human chimeric Fab (hereinafter “chimeric IgG”) was prepared which comprised the heavy chain sequence set forth in SEQ ID NO: 32 and the light chain sequence set forth in SEQ ID NO: 34. The heavy chain and light chain of the chimeric IgG are encoded by the nucleic acids set forth in SEQ ID NOs: 33 and 35, respectively. Nucleic acids encded by SEQ ID NO: 33 and SEQ ID NO: 35 which include a leader sequence were amplified and inserted into pTT5 to make an expression plasmid of the full-length IgG. The heavy chain and light chain expression plasmids were used to co-transfect 100 mL HEK293-6E cells. The recombinant IgG secreted into to media was purified using protein A affinity. The purified IgG migrated as ˜170 kDa band in SDS-PAGE under non-reducing conditions, ˜55 kDa and ˜30 kDA bands under reducing condition. The purity of the chimeric IgG is >90%, and the yield form the 100 mL culture was 0.46 mg. The binding affinity between the chimeric IgG and PD1/Fc fusion protein was determined using a Surface Plasmon Resonance (SPR) biosensor, Biacore T200 (GE Healthcare). PD1#3 was immobilized on the sensor chip pre-coated with anti-human Fc gamma. His-tagged human PD-1 protein was used as analyte.
# murine PD-1 = target: T1, murine PD-1; assay: murine PD-1 binding ELISA
# T2 sequence (Q15116 25-170 limits assumed): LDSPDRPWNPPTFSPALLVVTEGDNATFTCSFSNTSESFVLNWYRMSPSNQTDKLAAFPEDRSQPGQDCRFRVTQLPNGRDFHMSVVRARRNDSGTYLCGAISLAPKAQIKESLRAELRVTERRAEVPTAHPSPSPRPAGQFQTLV
# T3 sequence (Q15116 25-167 limits assumed): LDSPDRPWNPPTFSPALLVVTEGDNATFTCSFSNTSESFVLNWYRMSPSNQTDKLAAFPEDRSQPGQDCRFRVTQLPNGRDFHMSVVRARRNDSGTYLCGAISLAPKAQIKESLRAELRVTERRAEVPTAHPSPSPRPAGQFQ
binder,measurement,setting,value
B1,Kd,[1],0.0564 nM
same,koff,[1],1.78e-05 s⁻¹
same,kon,[1],315000 M⁻¹ s⁻¹
same,Kd,human PD-1 [2],0.15 nM
same,koff,human PD-1 [2],5.5e-05 s⁻¹
same,kon,human PD-1 [2],360000 M⁻¹ s⁻¹
B2,kon,human PD-1 [2],320000 M⁻¹ s⁻¹
same,Kd,human PD-1 [3],≤ 0.025 nM
same,koff,human PD-1 [3],< 8.1e-06 s⁻¹
B3,binding result,human PD-1 [4],no binding
B4,Kd,human PD-1 [5],0.253 nM
same,koff,human PD-1 [5],8.4e-05 s⁻¹
same,kon,human PD-1 [5],332000 M⁻¹ s⁻¹
B5,Kd,[6],0.487 nM
same,koff,[6],0.000129 s⁻¹
same,kon,[6],265000 M⁻¹ s⁻¹
same,Kd,[7],0.48 nM
B6,Kd,[6],1 nM
same,koff,[6],0.000183 s⁻¹
same,kon,[6],183000 M⁻¹ s⁻¹
B7,Kd,[6],0.579 nM
same,koff,[6],0.000139 s⁻¹
same,kon,[6],241000 M⁻¹ s⁻¹
B8,Kd,[6],0.943 nM
same,koff,[6],0.000263 s⁻¹
same,kon,[6],279000 M⁻¹ s⁻¹
B9,binding result,murine PD-1,no binding
B10,binding result,murine PD-1,no binding
B11,binding result,murine PD-1,no binding
